Reference: patent publication US20030180295A1, “Angiocidin: a Cys-Ser-Val-Thr-Cys-Gly specific tumor cell adhesion receptor” (Philadelphia Health and Education Corporation, priority 1999, published 2003)
No end group written: not given here. *: point of attachment. Acm = CC(=O)NC*

Assays:
receptor-TSP-1 complex [1] = molecular target: T1, receptor-TSP-1 complex (Homo sapiens, UniProt P55036, INS254GER); experiment: Affinity Sensor System: peptide competition of receptor binding to immobilized TSP-1; conditions: 10 fold molar excess of peptide
T1 construct: Full length cDNA cloned in the PBK-CMV vector was used as a template; 6xHis (pTrcHisA leader) (N); made in house; host or cells: bacteria (pTrcHisA vector)
T1 sequence (P55036 with tags, fused parts or gaps INS254GER): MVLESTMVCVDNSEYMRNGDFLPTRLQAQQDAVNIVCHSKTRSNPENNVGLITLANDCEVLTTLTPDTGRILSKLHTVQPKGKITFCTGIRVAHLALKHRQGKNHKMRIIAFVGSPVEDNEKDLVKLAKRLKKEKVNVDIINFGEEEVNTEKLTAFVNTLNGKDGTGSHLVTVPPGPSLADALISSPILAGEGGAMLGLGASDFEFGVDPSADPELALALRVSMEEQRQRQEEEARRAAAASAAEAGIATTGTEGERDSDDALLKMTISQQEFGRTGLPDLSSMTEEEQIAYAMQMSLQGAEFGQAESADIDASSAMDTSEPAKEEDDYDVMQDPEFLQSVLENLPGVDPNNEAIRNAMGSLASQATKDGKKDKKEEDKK
Procedure: (§1) Binding of undenatured (in the ligand blot protocol above, the receptor is denatured by SDS) recombinant receptor to TSP-1 was evaluated using the Affinity Sensor System, Cambridge, UK. This is an optical binding method that uses a cuvette to which either ligand or receptor is covalently coupled. A laser beam is used to detect bound proteins to the protein-derivatized cuvette surface. This method is highly sensitive and measures both the association and dissociation rate constants for ligand receptor interactions. The instrument assumes that one molecule of receptor binds one molecule of TSP-1 and calculates the dissociation constant (KD) according to the following relationships:
(§2) About 1 μg of TSP-1 was coupled to the cuvette through its amino groups to COOH groups on the cuvette surface. Unreacted groups on the cuvette surface were then blocked with ethanolamine and albumin. […] A dissociation constant of […] was calculated from a plot of the pseudo first order rate constant for association versus the concentration of the receptor, as shown in FIG. 7. Instrument response vs time readings shown in FIG. 8, where the instrument response is proportional to the concentration of receptor-TSP-1 complex, were used to plot the data points on FIG. 7.
(§3) […] The peptides used were Val-Cys-His-Ser-Lys-Thr-Arg (SEQ ID NO: 8), Val-Cys(Acm)-His-Ser-Lys-Thr-Arg (SEQ ID NO: 9), and Pro-His-Ser-Arg-Asn (SEQ ID NO: 10). The first two peptides are derived from the binding portion of the receptor, where it interacts with the Cys-Ser-Val-Thr-Cys-Gly (SEQ ID NO: 1) portion of the TSP-1 protein. The third peptide is a control.

[2] = molecular target: T2, biotin-angiocidin complex binding to TSP-1 (Homo sapiens, UniProt P55036, INS254GER); experiment: Biotin-avidin receptor binding assay: competition; conditions: Example 25, peptide 1 mg/ml, FIG. 32
T2 sequence (P55036 with tags, fused parts or gaps INS254GER): T1 sequence (P55036 with tags, fused parts or gaps INS254GER)
Procedure: In the following experiments, TSP-1 was covalently bound to a substrate, biotinylated angiocidin was added to the plate, and avidin-peroxidase was added to measure how much biotinylated angiocidin was attached to the TSP-1. The avidin-peroxidase was measured using a spectrophotometer at an absorbance of 450 nm.
Free angiocidin was added to the system to compete with the biotinylated angiocid in. […] Immobilized BSA was used as a negative control.
The TSP-1 peptide Cys-Ser-Val-Thr-Cys-Gly (SEQ ID NO: 1) was added to the system to compete with the TSP-1 on the plate for binding with the biotinylated angiocidin. The scrambled peptide Val-Cys-Thr-Gly-Ser-Cys (SEQ ID NO: 15) was used as a negative control and had no effect.
The avidin-biotin system discussed above was used to evaluate the competitive effect of various peptides on the binding of TSP-1 and angiocidin. […] The scrambled peptide Val-Cys-Thr-Gly-Ser-Cys-Gly (SEQ ID NO: 21) and the d-orientation peptide d-Cys-Ser-Val-Thr-Cys-Gly (SEQ ID NO: 22) were used as negative controls.

receptor = molecular target: T3, receptor (Homo sapiens, UniProt P55036, INS254GER); experiment: Affinity Sensor System: receptor binding to TSP-1 and Cys(Acm)-Ser-Val-Thr-Cys(Acm)-Gly; conditions: Example 8, FIG. 11
T3 construct: Full length cDNA cloned in the PBK-CMV vector was used as a template; 6xHis (pTrcHisA leader) (N); made in house; host or cells: bacteria (pTrcHisA vector)
T3 sequence (P55036 with tags, fused parts or gaps INS254GER): T1 sequence (P55036 with tags, fused parts or gaps INS254GER)
Procedure: as §1
The methodology set forth in Example 6 was followed except that TSP-1 and Cys(Acm)-Ser-Val-Thr-Cys(Acm)-Gly (SEQ ID NO: 6) were immobilized on cuvettes and the receptor was added to the cuvettes. The Acm version of the peptide was used to increase its stability in the experiment.

[3] = tested on: human umbilical vein endothelial cells (HUVEC); experiment: ALAMAR BLUE cell viability assay; type: cell-based
Procedure: (§4) Bovine aortic endothelial cells (BAEC), human umbilical vein endothelial cells (HUVEC), fibroblast cells, A549 human lung carcinoma cells (A549), MDA-MB231 human breast carcinoma cells (MB231), MCF7 human breast carcinoma cells (MCF7) were treated with 37 μg/ml of receptor, or buffer alone, for 24 hours. Viability of the cells was measured using the ALAMAR BLUE™ assay, which measures the capacity of cells to metabolize the ALAMAR BLUE™ dye. The ALAMAR BLUE™ assay (available from Biosource International, Camarillo, Calif.) quantitatively measures the proliferation of cell lines and can establish the relative cytotoxicity of chemical agents. The assay incorporates a fluorometric/colorimetric growth indicator based on detection of metabolic activity. The system incorporates an oxidation-reduction (redox) indicator that both fluoresces and changes color in response to chemical reduction of growth medium resulting from cell growth. This causes the redox indicator to change from its oxidized, non-fluorescent, blue form to its reduced, fluorescent, red form. Data can be collected using either fluorescence-based instrumentation (530-560 nm excitation wavelength and 590 nm emission wavelength) or absorbance-based instrumentation (570 nm and 600 nm).
Similarly, the effect of receptor on viability of BAEC cells was compared to mouse Lewis lung carcinoma cells, using the same method.
The effect of angiocidin on HUVEC cell viability was evaluated, and FGF and TSP-1 were added to determine whether they ameliorated the angiocidin effect on cell viability. FGF (Fibroblast Growth Factor) is an endothelial cell mitogen, which promotes cell growth. […] TSP-1 was expected to reverse the inhibition of angiocidin; however, quantities added may have been insufficient to provide the correct molar ratio.

[4] = tested on: Bovine aortic endothelial cells (BAEC); experiment: ALAMAR BLUE cell viability assay; type: cell-based; conditions: TSP-1 at 20 μg/ml and 5 μg/ml
Procedure: as §4
BAEC and BSM cells were treated with increasing concentrations of angiocidin (0, 0.625, 1.25, 2.5, 5, 15, 26 and 37 μg/ml) for 24 hours. Cell viability was measured using the ALAMAR BLUE Tm assay. […] In contrast, BSM cells are unaffected.
The methods of Example 21 were followed, except BAEC cells were used. Additionally, TSP-1 was added at both 20 μg/ml and 5 μg/ml.
As discussed in Example 19 above, angiocidin was added to BAEC cells. Fragments of angiocidin were added as well. […] GST was used as a negative control. V36-R42, the active site of the antisecretory factor, had no effect, illustrating that angiocidin plays a different role from antisecretory factor.
Bovine aortic endothelial cells (BAEC) were cultured overnight in serum-free media containing either 37 μg/ml his-tagged angiocidin or his-tagged GST. Both angiocidin and GST were expressed in bacteria transformed with the pTrcHisA expression vector and purified on nickel affinity chromatography under non-denaturing conditions. Viability was measured by the ALAMAR BLUE™ assay.
This study examined the effect of anti-angiocidin antibody on angiocidin-mediated inhibition of BAEC viability. BAEC were cultured overnight in serum-free media containing either 5 μg/ml angiocidin, 5 μg/ml angiocidin plus 100 μg/ml control IgG, or 5 μg/ml angiocidin plus 100 μg/ml anti-angiocidin IgG. Viability was measured using the ALAMAR BLUE™ assay, described above.
The endothelial cells (BAEC) were incubated overnight 37 μg/ml of the angiocidin, fragments, and GST. Viability was measured using the ALAMAR BLUE™ assay.

B16-F10 Melanoma Cells = experiment: Cell adhesion to immobilized receptor peptides; type: cell-based, mouse; conditions: Example 12, FIG. 14
Procedure: For the adhesion assay, in a 96 well plate, duplicate wells were covered with either TSP-1 (40 μg/ml), fibronectin (40 μg/ml), or and 1% bovine serum albumin (BSA). The wells were dried out overnight and then blocked with BSA. 100 μl of a suspension containing 2×10^5 cells were plated in the protein covered wells and incubated at 37^□ C. for 20 minutes to 1 hour. The non-adherent cells were removed and the wells were washed with a Hepes buffer. The adherent cells were fixed with 2.5% glutaraldehyde for 10 minutes and stained with 0.2% Giemsa. The stain was washed off and the cells were counted in a field of 1 mm square. Cells adhering to BSA were considered background while cells adhering to fibronectin were the positive control.
The method of Example 12 was followed except the receptor peptides Val-Cys-His-Ser-Lys-Thr-Arg (SEQ ID NO: 8) and Val-Cys(Acm)-His-Ser-Lys-Thr-Arg (SEQ ID NO: […]) were immobilized on the plates. TSP-1 and fibronectin were also immobilized on plates, as well as negative control peptides (Ala-Ser-Val-Thr-Ala-Arg (SEQ ID NO: 11) and Pro-His-Ser-Arg-Asn (SEQ ID NO: 10)) and bovine serum albumin. […] This provides support for the theory that another protein may be associated with TSP-1 and its receptor, or that the receptor is released and rebound to the membrane of the cell by another protein.

TSP-1 = TSP-1 (Homo sapiens, UniProt P07996); experiment: Affinity Sensor System (resonant mirror biosensor): binding to TSP-1 coupled to cuvette; conditions: peptide alone, TSP-1 immobilized in cuvette
Chain of TSP-1 (P07996 19-1170): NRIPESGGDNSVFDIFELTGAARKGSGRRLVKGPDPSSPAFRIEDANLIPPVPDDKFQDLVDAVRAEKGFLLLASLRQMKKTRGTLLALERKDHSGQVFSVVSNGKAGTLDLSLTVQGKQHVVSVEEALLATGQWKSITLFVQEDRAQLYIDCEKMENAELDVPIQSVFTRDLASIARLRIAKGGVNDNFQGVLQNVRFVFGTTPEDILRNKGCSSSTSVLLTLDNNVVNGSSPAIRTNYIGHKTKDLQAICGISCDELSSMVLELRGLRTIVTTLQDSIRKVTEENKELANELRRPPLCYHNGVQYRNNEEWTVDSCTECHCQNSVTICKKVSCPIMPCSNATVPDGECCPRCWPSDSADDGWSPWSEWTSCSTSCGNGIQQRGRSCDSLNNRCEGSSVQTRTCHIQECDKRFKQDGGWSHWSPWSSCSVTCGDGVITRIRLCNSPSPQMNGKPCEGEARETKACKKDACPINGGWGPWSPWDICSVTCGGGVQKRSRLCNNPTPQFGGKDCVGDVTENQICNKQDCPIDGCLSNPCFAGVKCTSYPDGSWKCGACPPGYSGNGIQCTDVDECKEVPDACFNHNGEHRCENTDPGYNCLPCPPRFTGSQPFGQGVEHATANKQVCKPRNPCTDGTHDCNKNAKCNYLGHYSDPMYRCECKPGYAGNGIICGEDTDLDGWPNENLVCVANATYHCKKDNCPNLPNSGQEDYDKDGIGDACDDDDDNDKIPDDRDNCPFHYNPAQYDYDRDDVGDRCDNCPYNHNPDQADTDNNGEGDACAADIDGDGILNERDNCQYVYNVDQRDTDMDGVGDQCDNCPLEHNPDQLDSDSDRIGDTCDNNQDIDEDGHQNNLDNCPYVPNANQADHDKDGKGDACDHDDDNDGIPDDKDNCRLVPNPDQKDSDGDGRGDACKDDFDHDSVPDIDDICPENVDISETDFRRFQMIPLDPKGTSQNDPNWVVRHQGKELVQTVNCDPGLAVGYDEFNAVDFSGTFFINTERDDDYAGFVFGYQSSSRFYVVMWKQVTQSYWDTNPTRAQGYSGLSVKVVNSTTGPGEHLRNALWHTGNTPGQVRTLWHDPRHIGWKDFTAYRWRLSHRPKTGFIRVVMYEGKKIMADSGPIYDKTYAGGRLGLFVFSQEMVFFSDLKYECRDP
Procedure: as §1
1) kass[R][TSP-1]=kdiss[R-TSP-1] at equilibrium, where kass is the second order rate constant for association and kdiss is the first order rate constant for dissociation
2) KD=[R][TSP-1]/[R-TSP-1]=kdiss/kass
3) [R-TSP-1]t=[R-TSP-1]eq[1-exp(-kont)], where the instrument response measure in arc seconds is proportional to receptor-TSP-1 complex R-TSP-1].
4) kon=kass[L]+kdiss where kon is the pseudo-first order rate constant for receptor TSP-1 interaction.
as §2, §3

receptor-TSP-1 complex [5] = experiment: Affinity Sensor System: peptide competition of receptor binding to immobilized TSP-1; conditions: peptide:receptor 1000 and 100 molar ratio
Procedure: as §1, §2, §3

extent of receptor binding, % of buffer control (receptor-TSP-1 complex [1])	peptide competition of TSP-1 receptor binding [2]	binding to the receptor (receptor)	direct binding to immobilized TSP-1 (TSP-1)	Substance	cell growth, factor alone ([3]; FGF 2 ng/ml, TSP-1 20 μg/ml)	reversal of the angiocidin inhibition of viability ([3]; angiocidin 37 μg/ml plus FGF 2 ng/ml or TSP-1 20 μg/ml)	reversal of the angiocidin inhibition of viability [4]	cell adhesion to immobilized peptide (B16-F10 Melanoma Cells)	inhibition of receptor binding to immobilized TSP-1 (receptor-TSP-1 complex [5])
47%	inhibited binding	bind to the receptor		Cys(Acm)-Ser-Val-Thr-Cys(Acm)-Gly (C(Acm)SVTC(Acm)G)					
		bind to the receptor		TSP-1: Thrombospondin, a cell adhesive protein and matrix molecule	stimulated cell growth above control	neither the addition of FGF or TSP-1 reversed the inhibition of angiocidin	can ameliorate some of the inhibition of angiocidin		
			bind directly to the immobilized TSP-1	VCHSKTR				cause the cells to adhere to the plates, with similar affinity to the positive controls fibronectin and TSP-1	inhibits binding of the receptor with the immobilized TSP-1
